The source of these data is the supplement of paper PMC9112550, “Optimization of the antimicrobial peptide Bac7 by deep mutational scanning” (BMC Biology, 2022).

In this data set the test system is Escherichia coli TOP10. Briefly: shrunken log2 fold change of peptide-encoding DNA abundance (4.5 h post-induction vs induction); higher = less antimicrobial activity (less host growth inhibition). To be noted: time post-induction: 4.5 h; library: site-saturation at positions 5, 18, 19, 20.
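Also: peptides expressed intracellularly from a pBAD plasmid library in pooled LB shake-flask culture, induced with 0.3% L-arabinose, DNA abundance read by NGS, three biological replicates, DESeq2 with apeglm shrinkage.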

Regarding RRIRNRPPRLPRPRPRPTSWPRP, the “shrunken log2 fold change” value is -0.228.

As for RRIRRRPPRLPRPRPRPQIMPRP, the “shrunken log2 fold change” value was -0.137.

With RRIRIRPPRLPRPRPRPKIDPRP, the “shrunken log2 fold change” value was -0.573.

As to RRIRSRPPRLPRPRPRPIFWPRP, the “shrunken log2 fold change” value worked out at 0.403.

For the sequence RRIRNRPPRLPRPRPRPCCYPRP, the “shrunken log2 fold change” value is -0.0141.

Turning to RRIRLRPPRLPRPRPRPFTAPRP, the “shrunken log2 fold change” value was -0.625.

Regarding RRIRDRPPRLPRPRPRPQDYPRP, the “shrunken log2 fold change” value was -0.112.

For RRIRYRPPRLPRPRPRPWTEPRP, the “shrunken log2 fold change” value is -0.0689.

As to RRIRLRPPRLPRPRPRPTQQPRP, the “shrunken log2 fold change” value was 0.0862.

RRIRKRPPRLPRPRPRPNRAPRP: the “shrunken log2 fold change” value is -0.0335.

Consider RRIRERPPRLPRPRPRPHVNPRP, for which the “shrunken log2 fold change” value was -1.04.

In the case of RRIRTRPPRLPRPRPRPLSRPRP, the “shrunken log2 fold change” value was -0.45.

Take RRIRSRPPRLPRPRPRPQVKPRP: the “shrunken log2 fold change” value was -0.146.

For the sequence RRIRYRPPRLPRPRPRPAIEPRP, the “shrunken log2 fold change” value is 0.0193.

On to RRIRCRPPRLPRPRPRPWMDPRP, for which the “shrunken log2 fold change” value was -0.169.

RRIRMRPPRLPRPRPRPDRQPRP: the “shrunken log2 fold change” value was 0.239.

On to RRIRMRPPRLPRPRPRPDNWPRP, for which the “shrunken log2 fold change” value is 0.402.

On to RRIRARPPRLPRPRPRPFYGPRP, for which the “shrunken log2 fold change” value was -0.0165.

Consider RRIRQRPPRLPRPRPRPTDYPRP, for which the “shrunken log2 fold change” value was -0.116.

For the sequence RRIRARPPRLPRPRPRPANCPRP, the “shrunken log2 fold change” value amounted to 0.186.

As to RRIRNRPPRLPRPRPRPYKGPRP, the “shrunken log2 fold change” value was -1.13.

For the sequence RRIRERPPRLPRPRPRPSAKPRP, the “shrunken log2 fold change” value stood at 0.0244.

For RRIRKRPPRLPRPRPRPSPEPRP, the “shrunken log2 fold change” value came to 0.525.

Take RRIRLRPPRLPRPRPRPWRYPRP: the “shrunken log2 fold change” value was -0.268.

RRIRERPPRLPRPRPRPTATPRP: the “shrunken log2 fold change” value came to 0.259.

As for RRIRERPPRLPRPRPRPKFEPRP, the “shrunken log2 fold change” value is -0.0495.

Regarding RRIRFRPPRLPRPRPRPMTMPRP, the “shrunken log2 fold change” value is -0.132.

With RRIRGRPPRLPRPRPRPFPGPRP, the “shrunken log2 fold change” value worked out at 0.0889.

Consider RRIRCRPPRLPRPRPRPPRFPRP, for which the “shrunken log2 fold change” value amounted to 1.34.

For RRIRFRPPRLPRPRPRPNSHPRP, the “shrunken log2 fold change” value is -0.432.

RRIRARPPRLPRPRPRPTPCPRP: the “shrunken log2 fold change” value came out at 0.323.

RRIRLRPPRLPRPRPRPWDEPRP: the “shrunken log2 fold change” value came to 0.066.

As for RRIRVRPPRLPRPRPRPYIYPRP, the “shrunken log2 fold change” value was -0.806.

On to RRIRGRPPRLPRPRPRPMPRPRP, for which the “shrunken log2 fold change” value was determined as 1.03.

Regarding RRIRPRPPRLPRPRPRPNRDPRP, the “shrunken log2 fold change” value is -0.271.

As to RRIRLRPPRLPRPRPRPFALPRP, the “shrunken log2 fold change” value amounted to 0.187.

RRIRNRPPRLPRPRPRPNWQPRP: the “shrunken log2 fold change” value was -0.123.

For RRIRRRPPRLPRPRPRPGVAPRP, the “shrunken log2 fold change” value was 0.858.

For RRIRTRPPRLPRPRPRPMDPPRP, the “shrunken log2 fold change” value was -0.107.

RRIRNRPPRLPRPRPRPRYIPRP: the “shrunken log2 fold change” value was -0.455.

RRIRHRPPRLPRPRPRPRTTPRP: the “shrunken log2 fold change” value was 0.136.

Consider RRIRQRPPRLPRPRPRPGHFPRP, for which the “shrunken log2 fold change” value was -0.0162.

In the case of RRIRCRPPRLPRPRPRPLWGPRP, the “shrunken log2 fold change” value is -0.26.

In the case of RRIRLRPPRLPRPRPRPLPFPRP, the “shrunken log2 fold change” value was -0.289.

Turning to RRIRDRPPRLPRPRPRPISCPRP, the “shrunken log2 fold change” value was -0.0129.

As to RRIRSRPPRLPRPRPRPSCCPRP, the “shrunken log2 fold change” value was -0.102.

Consider RRIRMRPPRLPRPRPRPPGGPRP, for which the “shrunken log2 fold change” value was 1.15.

With RRIRTRPPRLPRPRPRPDLKPRP, the “shrunken log2 fold change” value is 0.156.

As to RRIRGRPPRLPRPRPRPHMAPRP, the “shrunken log2 fold change” value amounted to 0.271.

For RRIRPRPPRLPRPRPRPLYTPRP, the “shrunken log2 fold change” value is -0.37.

For the sequence RRIRWRPPRLPRPRPRPDLRPRP, the “shrunken log2 fold change” value was -0.00728.

As for RRIRKRPPRLPRPRPRPTMNPRP, the “shrunken log2 fold change” value was -0.00264.

Regarding RRIRERPPRLPRPRPRPWRIPRP, the “shrunken log2 fold change” value was -0.0301.

With RRIRRRPPRLPRPRPRPVITPRP, the “shrunken log2 fold change” value was -0.554.

Consider RRIRFRPPRLPRPRPRPERYPRP, for which the “shrunken log2 fold change” value stood at 0.0915.

As to RRIRIRPPRLPRPRPRPTRTPRP, the “shrunken log2 fold change” value stood at 0.22.

With RRIRMRPPRLPRPRPRPRDEPRP, the “shrunken log2 fold change” value is 1.43.

For the sequence RRIRKRPPRLPRPRPRPVVCPRP, the “shrunken log2 fold change” value was 0.126.

Take RRIRHRPPRLPRPRPRPKRHPRP: the “shrunken log2 fold change” value came to 0.0834.

In the case of RRIRSRPPRLPRPRPRPACCPRP, the “shrunken log2 fold change” value came out at 0.303.

As for RRIRKRPPRLPRPRPRPRISPRP, the “shrunken log2 fold change” value is -0.258.

As to RRIRYRPPRLPRPRPRPEPTPRP, the “shrunken log2 fold change” value was 0.0581.

With RRIRKRPPRLPRPRPRPMGWPRP, the “shrunken log2 fold change” value turned out to be 0.31.

For RRIRYRPPRLPRPRPRPHSHPRP, the “shrunken log2 fold change” value was -0.311.

With RRIRTRPPRLPRPRPRPCVSPRP, the “shrunken log2 fold change” value is -0.221.

RRIRCRPPRLPRPRPRPMTRPRP: the “shrunken log2 fold change” value was -0.275.

As for RRIRKRPPRLPRPRPRPTICPRP, the “shrunken log2 fold change” value is -0.0104.

As for RRIRYRPPRLPRPRPRPLFIPRP, the “shrunken log2 fold change” value is -0.683.

With RRIRRRPPRLPRPRPRPHHRPRP, the “shrunken log2 fold change” value stood at 0.0911.

In the case of RRIRYRPPRLPRPRPRPPTIPRP, the “shrunken log2 fold change” value is -0.424.

RRIRSRPPRLPRPRPRPVKNPRP: the “shrunken log2 fold change” value amounted to 0.291.

As to RRIRMRPPRLPRPRPRPAYAPRP, the “shrunken log2 fold change” value was 0.0769.

Regarding RRIRARPPRLPRPRPRPVFQPRP, the “shrunken log2 fold change” value was 0.000109.

As for RRIRKRPPRLPRPRPRPHSRPRP, the “shrunken log2 fold change” value came out at 0.147.

As for RRIRGRPPRLPRPRPRPDGEPRP, the “shrunken log2 fold change” value stood at 0.259.

Consider RRIRPRPPRLPRPRPRPYKQPRP, for which the “shrunken log2 fold change” value was -0.777.

RRIRQRPPRLPRPRPRPMSVPRP: the “shrunken log2 fold change” value turned out to be 0.0173.

With RRIRPRPPRLPRPRPRPMVVPRP, the “shrunken log2 fold change” value was -0.153.

RRIRCRPPRLPRPRPRPNQCPRP: the “shrunken log2 fold change” value amounted to 2.64.

Turning to RRIRTRPPRLPRPRPRPVVCPRP, the “shrunken log2 fold change” value turned out to be 0.0187.

In the case of RRIRKRPPRLPRPRPRPECNPRP, the “shrunken log2 fold change” value is 0.0503.

Turning to RRIRERPPRLPRPRPRPMKEPRP, the “shrunken log2 fold change” value was -0.0276.

Consider RRIRPRPPRLPRPRPRPHCRPRP, for which the “shrunken log2 fold change” value was -0.198.

Consider RRIRTRPPRLPRPRPRPMWRPRP, for which the “shrunken log2 fold change” value is -0.0938.

For the sequence RRIRCRPPRLPRPRPRPDWNPRP, the “shrunken log2 fold change” value was -0.523.

RRIRMRPPRLPRPRPRPITKPRP: the “shrunken log2 fold change” value came out at 0.0745.

In the case of RRIRMRPPRLPRPRPRPAWMPRP, the “shrunken log2 fold change” value was found to be 0.189.

Take RRIRHRPPRLPRPRPRPQGSPRP: the “shrunken log2 fold change” value was -0.109.

As to RRIRRRPPRLPRPRPRPMDQPRP, the “shrunken log2 fold change” value is 0.132.

As to RRIRQRPPRLPRPRPRPIGPPRP, the “shrunken log2 fold change” value came out at 0.229.

Take RRIRARPPRLPRPRPRPNTVPRP: the “shrunken log2 fold change” value was 0.0514.

Take RRIRVRPPRLPRPRPRPFYYPRP: the “shrunken log2 fold change” value is -0.556.

As for RRIRFRPPRLPRPRPRPNPNPRP, the “shrunken log2 fold change” value was -0.168.

Turning to RRIRVRPPRLPRPRPRPFQDPRP, the “shrunken log2 fold change” value is -0.0723.

Consider RRIRTRPPRLPRPRPRPPMKPRP, for which the “shrunken log2 fold change” value was -0.112.

As to RRIRQRPPRLPRPRPRPVDMPRP, the “shrunken log2 fold change” value was -0.108.

Regarding RRIRQRPPRLPRPRPRPSGLPRP, the “shrunken log2 fold change” value is -0.0802.

RRIRYRPPRLPRPRPRPMLCPRP: the “shrunken log2 fold change” value is -0.0838.

RRIRFRPPRLPRPRPRPGEFPRP: the “shrunken log2 fold change” value is -0.239.

RRIRVRPPRLPRPRPRPECAPRP: the “shrunken log2 fold change” value came to 0.376.

With RRIRLRPPRLPRPRPRPDNAPRP, the “shrunken log2 fold change” value is 0.0803.

Turning to RRIRVRPPRLPRPRPRPLNQPRP, the “shrunken log2 fold change” value is -0.0183.

For the sequence RRIRLRPPRLPRPRPRPVRKPRP, the “shrunken log2 fold change” value was -0.0647.

In the case of RRIRLRPPRLPRPRPRPFEWPRP, the “shrunken log2 fold change” value was -0.151.

RRIRQRPPRLPRPRPRPAITPRP: the “shrunken log2 fold change” value was -0.114.

Take RRIRFRPPRLPRPRPRPLAQPRP: the “shrunken log2 fold change” value worked out at 0.097.

For the sequence RRIRMRPPRLPRPRPRPKNMPRP, the “shrunken log2 fold change” value was -0.0276.

Take RRIRMRPPRLPRPRPRPHFFPRP: the “shrunken log2 fold change” value was -0.134.

Take RRIRTRPPRLPRPRPRPTCYPRP: the “shrunken log2 fold change” value was -0.0585.

On to RRIRMRPPRLPRPRPRPHQRPRP, for which the “shrunken log2 fold change” value turned out to be 0.236.

In the case of RRIRTRPPRLPRPRPRPSQGPRP, the “shrunken log2 fold change” value amounted to 0.144.

Take RRIRIRPPRLPRPRPRPCGYPRP: the “shrunken log2 fold change” value was -0.01.

Consider RRIRCRPPRLPRPRPRPFDHPRP, for which the “shrunken log2 fold change” value was 0.0529.

With RRIRGRPPRLPRPRPRPSKYPRP, the “shrunken log2 fold change” value was determined as 0.00351.

In the case of RRIRRRPPRLPRPRPRPIYSPRP, the “shrunken log2 fold change” value was -0.159.

On to RRIRDRPPRLPRPRPRPWCPPRP, for which the “shrunken log2 fold change” value was -0.422.

Turning to RRIRDRPPRLPRPRPRPRNQPRP, the “shrunken log2 fold change” value is -0.00575.

For RRIRGRPPRLPRPRPRPVVEPRP, the “shrunken log2 fold change” value turned out to be 0.937.

For the sequence RRIRIRPPRLPRPRPRPEVWPRP, the “shrunken log2 fold change” value stood at 0.217.

For the sequence RRIRIRPPRLPRPRPRPKCFPRP, the “shrunken log2 fold change” value was -0.852.

As to RRIRFRPPRLPRPRPRPHKKPRP, the “shrunken log2 fold change” value is -0.369.

Take RRIRCRPPRLPRPRPRPAVWPRP: the “shrunken log2 fold change” value stood at 0.617.

For the sequence RRIRHRPPRLPRPRPRPKPCPRP, the “shrunken log2 fold change” value is -0.139.

As for RRIRPRPPRLPRPRPRPTYTPRP, the “shrunken log2 fold change” value is -0.272.

RRIRCRPPRLPRPRPRPFSWPRP: the “shrunken log2 fold change” value was -0.141.
